Data reported in the supplement of paper PMC10567573.

B1: EDARADD (parent)
chain: VEKVLRRWVDEEWPKRERGDPSRH

Variants of: B1
Assay: protein stability index of a GFP-peptide fusion (GPS, HEK-293T) (PSI 1-6); higher = more stable
Conditions: c terminus: a fixed tail appended
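Also: lentivirally expressed fusions sorted by FACS into six bins by GFP to DsRed ratio, PSI derived from sequencing read proportions per bin multiplied by bin number.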

| Variant | protein stability index |
| --- | --- |
| VEKVLRRWVDIEWPKRERGDPSRH | 2.7 |
| VEKVLRRWVDCEWPKRERGDPSRH | 2.43 |
| VEKVLRRWVDAEWPKRERGDPSRH | 2.73 |
| VEKVLRRWVVEEWPKRERGDPSRH | 2.47 |
| VEKVLRRWVTEEWPKRERGDPSRH | 2.74 |
| VEKVLRRWVLEEWPKRERGDPSRH | 3.29 |
| VEKVLRRWVQEEWPKRERGDPSRH | 2.73 |
| VEKVLRRWVHEEWPKRERGDPSRH | 2.44 |
| VEKVLRRWVGEEWPKRERGDPSRH | 3.39 |
| VEKVLRRWVCEEWPKRERGDPSRH | 2.69 |
| VEKVLRRWVWEEWPKRERGDPSRH | 2.88 |
| VEKVLRRWVMEEWPKRERGDPSRH | 2.26 |
| VEKVLRRWVYEEWPKRERGDPSRH | 2.59 |
| VEKVLRRWVPEEWPKRERGDPSRH | 3.4 |
| VEKVLRRWVKEEWPKRERGDPSRH | 2.4 |
| VEKVLRRWVREEWPKRERGDPSRH | 2.62 |
| VEKVLRRWVSEEWPKRERGDPSRH | 3.4 |
| VEKVLRRWVNEEWPKRERGDPSRH | 2.71 |
| VEKVLRRWVAEEWPKRERGDPSRH | 2.53 |
| VEKVLRRWVFEEWPKRERGDPSRH | 2.81 |
| VEKVLRRWVIEEWPKRERGDPSRH | 2.65 |
| VEKVLRRPVDEEWPKRERGDPSRH | 4.71 |
| VEKVLRRCVDEEWPKRERGDPSRH | 4.03 |
| VEKVLRRAVDEEWPKRERGDPSRH | 3.98 |

| Variant | protein stability index |
| --- | --- |
| VEKVLRRHVDEEWPKRERGDPSRH | 4.08 |
| VEKVLRRGVDEEWPKRERGDPSRH | 4.8 |
| VEKVLRRQVDEEWPKRERGDPSRH | 4.78 |
| VEKVLRRYVDEEWPKRERGDPSRH | 3.12 |
| VEKVLRRMVDEEWPKRERGDPSRH | 3.69 |
| VEKVLRRRVDEEWPKRERGDPSRH | 4.13 |
| VEKVLRRFVDEEWPKRERGDPSRH | 3.34 |
| VEKVLRRLVDEEWPKRERGDPSRH | 2.76 |
| VEKVLRRIVDEEWPKRERGDPSRH | 3.4 |
| VEKVLRREVDEEWPKRERGDPSRH | 4.22 |
| VEKVLRRTVDEEWPKRERGDPSRH | 4.06 |
| VEKVLRRSVDEEWPKRERGDPSRH | 4.97 |
| VEKVLRRNVDEEWPKRERGDPSRH | 5.25 |
| VEKVLRRDVDEEWPKRERGDPSRH | 4.56 |
| VEKVLRRKVDEEWPKRERGDPSRH | 4.43 |
| VEKTLRRWVDEEWPKRERGDPSRH | 3.08 |
| VEKMLRRWVDEEWPKRERGDPSRH | 2.67 |
| VEKDLRRWVDEEWPKRERGDPSRH | 4.08 |
| VEKFLRRWVDEEWPKRERGDPSRH | 1.97 |
| VEKQLRRWVDEEWPKRERGDPSRH | 2.76 |
| VEKHLRRWVDEEWPKRERGDPSRH | 3.6 |
| VEKWLRRWVDEEWPKRERGDPSRH | 3.53 |
| VEKALRRWVDEEWPKRERGDPSRH | 2.89 |
| VEKPLRRWVDEEWPKRERGDPSRH | 3.71 |

| Variant | protein stability index |
| --- | --- |
| VEKYLRRWVDEEWPKRERGDPSRH | 2.5 |
| VEKCLRRWVDEEWPKRERGDPSRH | 2.62 |
| VEKILRRWVDEEWPKRERGDPSRH | 2.69 |
| VEKKLRRWVDEEWPKRERGDPSRH | 3.06 |
| VEKLLRRWVDEEWPKRERGDPSRH | 2.2 |
| VEKELRRWVDEEWPKRERGDPSRH | 4.41 |
| VEKRLRRWVDEEWPKRERGDPSRH | 3.42 |
| VEKNLRRWVDEEWPKRERGDPSRH | 4.2 |
| VEKSLRRWVDEEWPKRERGDPSRH | 4.21 |
| VYKVLRRWVDEEWPKRERGDPSRH | 1.89 |
| VKKVLRRWVDEEWPKRERGDPSRH | 1.24 |
| VNKVLRRWVDEEWPKRERGDPSRH | 3.23 |
| VDKVLRRWVDEEWPKRERGDPSRH | 2.9 |
| VQKVLRRWVDEEWPKRERGDPSRH | 2.51 |
| VCKVLRRWVDEEWPKRERGDPSRH | 2.3 |
| VMKVLRRWVDEEWPKRERGDPSRH | 1.96 |
| VAKVLRRWVDEEWPKRERGDPSRH | 2.61 |
| VTKVLRRWVDEEWPKRERGDPSRH | 2.24 |
| VRKVLRRWVDEEWPKRERGDPSRH | 2.53 |
| VLKVLRRWVDEEWPKRERGDPSRH | 1.39 |
| VPKVLRRWVDEEWPKRERGDPSRH | 2.94 |
| VVKVLRRWVDEEWPKRERGDPSRH | 1.63 |
| VWKVLRRWVDEEWPKRERGDPSRH | 2.05 |
| VIKVLRRWVDEEWPKRERGDPSRH | 1.72 |

| Variant | protein stability index |
| --- | --- |
| VHKVLRRWVDEEWPKRERGDPSRH | 2.37 |
| VSKVLRRWVDEEWPKRERGDPSRH | 2.46 |
| VFKVLRRWVDEEWPKRERGDPSRH | 1.45 |
| VEKVLRTWVDEEWPKRERGDPSRH | 3.6 |
| VEKVLRDWVDEEWPKRERGDPSRH | 4.05 |
| VEKVLRKWVDEEWPKRERGDPSRH | 3.29 |
| VEKVLRPWVDEEWPKRERGDPSRH | 3.9 |
| VEKVLRYWVDEEWPKRERGDPSRH | 2.7 |
| VEKVLRLWVDEEWPKRERGDPSRH | 2.62 |
| VEKVLRMWVDEEWPKRERGDPSRH | 2.69 |
| VEKVLRGWVDEEWPKRERGDPSRH | 3.98 |
| VEKVLRVWVDEEWPKRERGDPSRH | 3.43 |
| VEKVLREWVDEEWPKRERGDPSRH | 3.91 |
| VEKVLRQWVDEEWPKRERGDPSRH | 3.45 |
| VEKVLRFWVDEEWPKRERGDPSRH | 3.61 |
| VEKVLRHWVDEEWPKRERGDPSRH | 3.56 |
| VEKVLRIWVDEEWPKRERGDPSRH | 2.32 |
| VEKVLRCWVDEEWPKRERGDPSRH | 2.35 |
| VEKVLRAWVDEEWPKRERGDPSRH | 3.09 |
| VEKVLRNWVDEEWPKRERGDPSRH | 4.48 |
| VEKVLRSWVDEEWPKRERGDPSRH | 3.46 |
| VEKVLRWWVDEEWPKRERGDPSRH | 2.49 |
